For orientation: Kd means a measure of binding affinity in units of concentration. A low value points to higher affinity. As a reminder, the stoichiometry N is the number of molecules, sites or subunits per partner or assembly.

Here are results for 4 molecules from PMC4535689.

Assay [1] has as its target mouse NGL-1 extracellular fragment (LRR and Ig domains) (mouse). The assay can be described thus: AUC.
The target in assay [2] is T1, human NGL-2 extracellular fragment (LRR and Ig domains) (human).
T1 sequence (Q9HBW1 whole entry, looked up): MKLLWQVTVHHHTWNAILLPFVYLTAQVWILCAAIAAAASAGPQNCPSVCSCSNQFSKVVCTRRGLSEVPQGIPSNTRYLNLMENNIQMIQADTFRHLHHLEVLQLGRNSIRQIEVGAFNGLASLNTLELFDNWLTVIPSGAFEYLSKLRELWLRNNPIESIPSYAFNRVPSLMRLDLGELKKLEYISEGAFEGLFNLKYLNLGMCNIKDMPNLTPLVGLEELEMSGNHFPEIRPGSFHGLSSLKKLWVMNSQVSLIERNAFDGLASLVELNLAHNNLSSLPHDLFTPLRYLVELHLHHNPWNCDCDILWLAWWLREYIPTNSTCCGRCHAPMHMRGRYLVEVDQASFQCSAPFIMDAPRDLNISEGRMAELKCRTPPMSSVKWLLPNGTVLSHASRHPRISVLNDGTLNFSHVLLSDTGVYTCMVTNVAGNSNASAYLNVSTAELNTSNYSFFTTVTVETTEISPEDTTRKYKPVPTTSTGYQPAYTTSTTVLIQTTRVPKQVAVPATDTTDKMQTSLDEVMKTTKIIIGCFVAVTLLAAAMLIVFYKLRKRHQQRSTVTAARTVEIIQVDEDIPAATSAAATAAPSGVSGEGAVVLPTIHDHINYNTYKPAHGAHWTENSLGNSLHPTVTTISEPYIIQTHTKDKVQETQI
The assay can be described thus: AUC.

On to “mouse netrin G1 isoform G1f (LN and LE1 domains) (natural protein)”, for which, in assay [1], the dissociation constant (Kd) amounted to 505 nM and the stoichiometry N came out at 1.

For “mouse netrin G1 isoform G1j (LN domain only) (natural protein)”, the Kd in assay [1] turned out to be 1490 nM.

B1: human sNetrin G2 ("short" netrin G2, LN and LE1 domains only) (domain or fragment)
chain: DYDICKSWVTTDEGPTWEFYACQPKVMRLKDYVKVKVEPSGITCGDPPERFCSHENPYLCSNECDASNPDLAHPPRLMFDKEEEGLATYWQSITWSRYPSPLEANITLSWNKTVELTDDVVMTFEYGRPTVMVLEKSLDNGRTWQPYQFYAEDCMEAFGMSARRARDMSSSSAHRVLCTEEYSRWAGSKKEKHVRFEVRDRFAIFAGPDLRNMDNLYTRLESAKGLKEFFTLTDLRMRLLRPALGGTYVQRENLYKYFYAISNIEVIGRCKCNLHANLCSMREGSLQCECEHNTTGPDCGKCKKNFRTRSWRAGSYLPLPHGSPNACATAGS
modifications: N-linked glycans at Asn105 and Asn111 (seen in the crystal structure)
B1: in assay [2], the Kd worked out at 180 nM. That is a sub-micromolar value.

B2: human netrin G2, full ectodomain (LN domain, LE1-3 and C'), lacking only the GPI anchor site (domain or fragment)
chain: DYDICKSWVTTDEGPTWEFYACQPKVMRLKDYVKVKVEPSGITCGDPPERFCSHENPYLCSNECDASNPDLAHPPRLMFDKEEEGLATYWQSITWSRYPSPLEANITLSWNKTVELTDDVVMTFEYGRPTVMVLEKSLDNGRTWQPYQFYAEDCMEAFGMSARRARDMSSSSAHRVLCTEEYSRWAGSKKEKHVRFEVRDRFAIFAGPDLRNMDNLYTRLESAKGLKEFFTLTDLRMRLLRPALGGTYVQRENLYKYFYAISNIEVIGRCKCNLHANLCSMREGSLQCECEHNTTGPDCGKCKKNFRTRSWRAGSYLPLPHGSPNACATAGSFGNCECYGHSNRCSYIDFLNVVTCVSCKHNTRGQHCQHCRLGYYRNGSAELDDENVCIECNCNQIGSVHDRCNETGFCECREGAAGPKCDDCLPTHYWRQGCYPNVCDDDQLLCQNGGTCLQNQRCACPRGYTGVRCEQPRCDPADDDGGLDCDR
As for B2, in assay [2], the dissociation constant (Kd) came to 264 nM and the stoichiometry N is 1.
